# Experimental data as given in paper PMC8096283 (Nucleic Acids Research, 2020).
# Molecular target: the molecule itself
# Assay: magnetic tweezers force spectroscopy
row,Protein,stacking energy [kBT]
1,HMfA_(K31A E35A) (natural protein) not shown,1.18
2,HMfA homodimer (Methanothermus fervidus histone HMfA) (natural protein) not shown,1.81
3,HMfB_(D14A K30A E34A) (natural protein) not shown,1.07
4,HMfB homodimer (Methanothermus fervidus histone HMfB) (natural protein) not shown,3.44
